This note sets out measurements from paper PMC6914362 (Nature, 2019).

Data set [1] deals with the molecule itself. Description: SEC. In general terms: SEC sorts molecules by how far they enter the pores of the column.
Data set [2] deals with the molecule itself. The data set can be described thus: SEC. This is another data set of the same source.
The data set “native gel or EMSA” deals with the molecule itself. The data set can be described thus: native gel or EMSA. Background: In EMSA bound probe runs differently from free probe, usually more slowly.

Numbering of substitutions follows the chain as printed. Names may count otherwise.

B1: SHMT1 wild type (enzyme, human, UniProt P34896 1-483, looked up)
chain: MTMPVNGAHKDADLWSSHDKMLAQPLKDSDVEVYNIIKKESNRQRVGLELIASENFASRAVLEALGSCLNNKYSEGYPGQRYYGGTEFIDELETLCQKRALQAYKLDPQCWGVNVQPYSGSPANFAVYTALVEPHGRIMGLDLPDGGHLTHGFMTDKKKISATSIFFESMPYKVNPDTGYINYDQLEENARLFHPKLIIAGTSCYSRNLEYARLRKIADENGAYLMADMAHISGLVAAGVVPSPFEHCHVVTTTTHKTLRGCRAGMIFYRKGVKSVDPKTGKEILYNLESLINSAVFPGLQGGPHNHAIAGVAVALKQAMTLEFKVYQHQVVANCRALSEALTELGYKIVTGGSDNHLILVDLRSKGTDGGRAEKVLEACSIACNKNTCPGDRSALRPSGLRLGTPALTSRGLLEKDFQKVAHFIHRGIELTLQIQSDTGVRATLKEFKERLAGDKYQAAVQALREEVESFASLFPLPGLPDF
On to B1, for which the stoichiometry N (as a rule, a count of units in the complex or per binding partner) in “SEC [1]” stood at 4.

B2: SHMT2ΔN (residues 18-504), dimeric (PLP-free) form (enzyme, human, UniProt P34897 18-504, looked up)
chain: QLVRMAIRAQHSNAAQTQTGEANRGWTGQESLSDSDPEMWELLQREKDRQCRGLELIASENFCSRAALEALGSCLNNKYSEGYPGKRYYGGAEVVDEIELLCQRRALEAFDLDPAQWGVNVQPYSGSPANLAVYTALLQPHDRIMGLDLPDGGHLTHGYMSDVKRISATSIFFESMPYKLNPKTGLIDYNQLALTARLFRPRLIIAGTSAYARLIDYARMREVCDEVKAHLLADMAHISGLVAAKVIPSPFKHADIVTTTTHKTLRGARSGLIFYRKGVKAVDPKTGREIPYTFEDRINFAVFPSLQGGPHNHAIAAVAVALKQACTPMFREYSLQVLKNARAMADALLERGYSLVSGGTDNHLVLVDLRPKGLDGARAERVLELVSITANKNTCPGDRSAITPGGLRLGAPALTSRQFREDDFRRVVDFIDEGVNIGLEVKSKTAKLQDFKSFLLKDSETSQRLANLRQRVEQFARAFPMPGFDEH
As for B2, the “stoichiometry N” value in “SEC [2]” came to 2.

B3: SHMT2ΔN (residues 18-504), PLP-bound tetramer (enzyme, human, UniProt P34897 18-504, looked up)
chain: B2 chain
modifications: pyridoxal-5'-phosphate (PLP) bound, internal aldimine linkage; PLP acceptor Lys280
For B3, in the data set “SEC [2]”, the “stoichiometry N” value was determined as 4.

B4: Flag-HA epitope-tagged SHMT2ΔN (MEFs) (enzyme, human, UniProt P34897 18-504, looked up)
chain: B2 chain
For the protein B4, the “stoichiometry N” value in “native gel or EMSA” is 2.

B5: SHMT2ΔN+A285T (enzyme, human, UniProt P34897 18-504, looked up)
chain: B2 chain with A268T
For the protein B5, in “SEC [2]”, the “stoichiometry N” value turned out to be 2.
